Measurements: the supplement of paper PMC10724198
± gives the standard deviation of the averaged measurements.

What was measured:
[1] = test system: Saccharomyces cerevisiae; assay: protein stability index of tFT-peptide fusion (C-terminal peptide) (PSI (0-1 scale)); higher = more stable (slower turnover)
Protocol: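 MPS profiling in S. cerevisiae of the tFT-X12 degron library: putative degron peptides plus stable controls, 12 aa, fused to the C-terminus of a sfGFP-mCherry timer. Cells are FACS-sorted into 8 mCherry/sfGFP bins and deep-sequenced. PSI runs from 0 (unstable) to 1 (stable). Backgrounds are wild type, das1Δ and doa10Δ at 30 °C, and wild type, das1Δ, cdc34-1 and cdc53-1 at 37 °C; 2-3 technical replicates each.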

[2] = test system: Saccharomyces cerevisiae; assay: as above; details: genetic background: wild type; temperature: 30 C
[3] = genetic background: cdc34-1, temperature: 37 C
[4] = genetic background: cdc53-1, temperature: 37 C
[5] = genetic background: das1 deletion, temperature: 30 C
[6] = genetic background: das1 deletion, temperature: 37 C
[7] = genetic background: doa10 deletion, temperature: 30 C
[8] = genetic background: wild type, temperature: 30 C
[9] = genetic background: wild type, temperature: 37 C
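Further: PSI is a weighted mean of sequencing reads over stability bins, variants kept only with over 10 reads, mCherry proximal and sfGFP distal, peptide attached via GGGS linker.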

| Sequence | protein stability index [1, 3] | protein stability index [1, 4] | protein stability index [1, 5] | protein stability index [1, 6] | protein stability index [1, 7] | protein stability index [1, 8] | protein stability index [1, 9] | protein stability index [2] |
| --- | --- | --- | --- | --- | --- | --- | --- | --- |
| RFYLFLFFVRST | 0.302 ± 0.055 | 0.4403 ± 0.0022 | 0.316 ± 0.039 | 0.5488 ± 0.0049 | 0.113 ± 0.0039 | 0.11 ± 0.008 | 0.131 ± 0.012 | 0.175 ± 0.0048 |
| RGGVCFVVWCGG | 0.46 ± 0.03 | 0.503 ± 0.095 | 0.435 ± 0.0077 | 0.475 ± 0.029 | 0.4305 ± 0.00076 | 0.432 ± 0.0053 | 0.441 ± 0.0061 | 0.429 |
| RGRLKSSYFILF | 0.7 ± 0.032 | 0.7127 ± 0.0056 | 0.65 ± 0.013 | 0.7509 ± 0.0052 | 0.49 ± 0.0063 | 0.534 ± 0.047 | 0.671 ± 0.017 | 0.497 ± 0.074 |
| RGWNGFWVVVVW | 0.216 ± 0.015 | 0.305 ± 0.03 | 0.239 ± 0.039 | 0.4155 ± 0.0011 | 0.213 ± 0.0046 | 0.227 ± 0.035 | 0.368 ± 0.032 | 0.307 ± 0.0078 |
| RIKVTRRIIIYA | 0.335 ± 0.036 | 0.383 ± 0.07 | 0.239 ± 0.054 | 0.446 ± 0.014 | 0.14 ± 0.0072 | 0.179 ± 0.022 | 0.302 ± 0.018 | 0.299 ± 0.011 |
| RILSLQFILCKR | 0.607 ± 0.025 | 0.649 ± 0.015 | 0.538 ± 0.024 | 0.64 ± 0.0078 | 0.407 ± 0.013 | 0.414 ± 0.043 | 0.546 ± 0.019 | 0.463 ± 0.0058 |
| RLARRGGGWGPG | 0.681 ± 0.012 | 0.7334 ± 0.0049 | 0.657 ± 0.034 | 0.706 ± 0.022 | 0.657 ± 0.034 | 0.67 ± 0.046 | 0.7281 ± 0.00042 | 0.5 ± 0.1 |
| RLELTRIMIVAI | 0.06 ± 0.0059 | 0.08016 ± 0.00021 | 0.182 ± 0.024 | 0.214 ± 0.0094 | 0.109 ± 0.015 | 0.117 ± 0.028 | 0.102 ± 0.02 | 0.207 ± 0.035 |
| RLGIRCLYLRFI | 0.406 ± 0.1 | 0.422 ± 0.052 | 0.482 ± 0.059 | 0.5974 ± 0.0019 | 0.25 ± 0.015 | 0.216 ± 0.035 | 0.363 ± 0.016 | 0.306 ± 0.011 |
| RLLCLARMRGLH | 0.6854 ± 0.0031 | 0.714 ± 0.02 | 0.631 ± 0.068 | 0.728 ± 0.037 | 0.341 ± 0.036 | 0.337 ± 0.022 | 0.579 ± 0.024 | 0.396 ± 0.2 |
